Experimental data taken from the supplement of paper PMC9170038.

system: K4 kissing-loop RNA reporter; assay: apparent KD of K4 kissing-loop reporter; higher = weaker reporter binding; settings: Eterna round: R107; input ligand: arginine 13.2 mM
Experimental: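 RNA-MaP round R107: designed RNA switches with theophylline, tryptophan, arginine or FMN aptamers are transcribed on-chip within common flanks. They are titrated with a labelled K4 kissing-loop RNA reporter in RNA-MaP buffer (100 mM Tris pH 7.5, 80 mM KCl, 4 mM MgCl2), without ligand or with the indicated ligand. Median apparent KD per design.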
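Note: bound reporter read as fluorescence of individual clusters on recovered sequencing chips by microscopy, with normalized cluster intensities fitted with a binding model.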

Sequence | apparent KD of K4 kissing-loop reporter
GCCGUAGAUUGAAGGAGCGCCUUCUUACCAAGAGUGAUGUUCUUUGGUACCAUGUUCAGUAGGCAGGUAGGUCGCAAUCUACGGC | 258 nM
AGCAUUAUCAGAAGGAGCGUGUAUAAAUCAAUAGUAUUGUAUUCGAGUGAUGUUCGUAAUACACAGGUAGGUCGCUGAUAUUGCA [JR_ExcArginiB_Sub002] | 172 nM
GCCGUACGCAUGGAUACCAGCGUACGUCACCUAGCAGUGAUGUUGCUAUUGCCACGUAAACGCCCUUGGCAGCCAUGCGUACGGC | 448 nM
CAUACGCAUGGAGGAUAUGAGAUUUCUCAUAUUAUUUAAUAUUCUCAGUGAUGUUGAGAUUUAAACUCAGAAGGCCAUGUGUAUG [Ex FMN B 6] | 235 nM
CUUGUACAUGCCGAGGUAGGUGCGGGUUAGCGAGGACCGGUACGGCCGCCACUCGCCAAGUGAUGUUUGGUCCUUUGGGUCGGCA | 507 nM
AUUUUUUUAUCAGGAUAUUAGUGAUGGUUUGUUUUGUUAGUGAUGUUGAUAUUUGUUUUAUGUAUUUAAGAAGGGAUUGAGAUGU [seesullin] | 25.3 nM

same assay, conditions: Eterna round: R107; input ligand: none

Sequence | apparent KD of K4 kissing-loop reporter
UGUAUGUGAUUUGAUACCAGACCAGCUGGUGGUGUAUGAGUGAUGUUCAUGUUGGUUUGGGUCCCUUGGCAGCAAAUCGCAUACU [KL-SSTheoB30] | 11.8 nM
AGUCCACUCUAAAGAGUGGACCUAAGGGAUACCAGUGAUGUUGGUCACCCUUGGCAGCCCAGGGCCCGGGAUAAACCCGGGCCCA [#09 K4 Theophylline A Exclusion] | 113 nM
UUUUGCGCGUACGAUACCAGUAUCUGUAAGAGUGAUGUUCAGCGCUGAAGACAGCAGCGAUACCCUUGGCAGCGUUACAUGCUAG [theeternabot_sameState_KL_Theo_B_22] | 553 nM
AAUUGAGUGACGGCCGCCACUAGAGUGAUUUUUUUGUUUGAGUGAUGUUUUGAUGUUUGAUUUUGUAGGACCGGGUUGAGUGAUG [qqxzmullin] | 357 nM
UGUAUGGACUGAAGGAGCGGUAGAUAAACUGAGUGAUGUUCGGCAGAUAAAGGCGCAAGCCACCAGGUAGGUCGCAGUCCAUACU [KL-SSArg B3] | 391 nM
UUAUUGAGCGUUUGUGAGAAGGCGUUCUUCAAGGAUAUCGACGUAACGAGAAGGUGAUUCGUUCCGAGUGAUGUUCGGUACGGGC [theeternabot_sameState_KL_FMN_A_4] | 234 nM
UGGACGAAUAUCGAUAAGAUAUUCUGGGAUACCAGUGACGAAAGUCACCCUUGGCAGCUCAACUGCCAGUGAUGUUGGUAGUCCA [Astros-Elo-mod#3] | 218 nM
AGACUACCACACUGUCAAUAGACAGUGAAUUAGGAUAUGCUGAUAAGCAGAAGGAGUGAUGUUCCGAGGUAGUCAAUAAAAUAAU [FmnAX 13 U30+G66] | 216 nM
ACUCCGAGUGAUGUUAAGAGAUUCUCUGUUAAGGAUAUUUUGCGCAAAAGAAGGUAACCCGGUUUUCGUAAUCUGUUAAUGCGGA [theeternabot_exclusion_KL_FMN_A_38] | 581 nM
UCUCAAGCACAGUGAUGUUGUGCUUGGGAAGGAGCGCGUGGGAACGCAGGUAGGUCGCCCGGUAAAUCGCGUCAAUGCUAGAGGC [Arg A Ex t5] | 99.9 nM
UUCUACGAGUGAUGUUCGUAGUGUAAUCGCUAGGAUAUCGUUUUUUCGAGAAGGAGCGUCGAAGUGAUACGAAAGUAUCGCUUCG [FMN A 13] | 300 nM
UGUCAUUGGUCGGCCGCCACUAGGACCGGGACUUCUCUAGUGAUGUUAGUCUGGUCGGCCGCCACUAGGACCGGGACCGAUGACU [KL-SSTryp-B14 #DoubleAptamer] | 671 nM
AACAGCAAUGCGGCCGCCACUUCGAGUUCAGUGAUGUUGAAAGAAUUAAAUAAAGAUCCCAAGAGGAGGACCGGGCAGUGCUGUU [Default title] | 530 nM
GUAGUUGCGCAAGGAUAUUAGUUAAGUGAUGUUUGAUUCGGUAUUGUUUACGUACACUGACCCGAUUAAGAAGGUGCGGGCAGCG [theeternabot_exclusion_KL_FMN_B_50] | 580 nM
AAAUUUAUAUUAGAUACCAGCAAAUUGAAAGUUUAUUAUGACAAGAGUGAUGUUCUUGUAUGCCCUUGGCAGCUGGUAUGGGUUU [KL-XTheo-B26] | 120 nM
AAAUAAAGCAGUCACCCAGUGAUGUUGGAAGGAGCGUGCGAAAGCACAGGUAGGUCGCCGAUAAAGGACAAAGUCCGUGGCUGCA [#SwitchBubble 29 #K4Early] | 253 nM
UGAUAGGACAGAAGGAGCGGGCUAGUCAAAGACUAGCAAACGUUAAUAACAGGAGUGAUGUUCCAGGUAGGUCGCUGUCCUAUCU [ArgBX 25 #SwitchBubble #StaticStem] | 143 nM
UUUCGUAGAAGUGAUACCAGACUUGAAAGUGAUGUUUUCCAAUAAUUUAAAUUUUUAGCUGUCCCUUGGCAGCACAGUUUAUUUA [JR_Nu_ExcTheophyB_Sub026] | 263 nM
GGUGUUGUUUGUGCUGUUUUCCUCGUUUCUCGAGGACCGGUACGGCCGCCACUCGAGUGAUGUUUGGGUAGCGAUCCUUGUUAGU [Bdazzled - #6 Exc. Tryptophan A] | 313 nM
UUAUAUUUCAGUGAUGUUGAAAAUAUAACAGAGGAUAUGCGUUUAAGCAGAAGGCUGAAAUACUAUACUUUAAUCUAUUAAAUUU [JR_Nu_SSFMNA_Sub027] | 350 nM
GGAUAGGAUAGAGGAUAUGGAAAACACAGAAGUGACUUGUUGUGUUUAUCCAUAGGGAGUGAUGUUCCAGAAGGCUGUCCUAUCG [MatMod 22 - Jieux - Exclusion - FMN B] | 206 nM
